Laboratory results taken from paper PMC7760575, “TORC2-Dependent Ypk1-Mediated Phosphorylation of Lam2/Ltc4 Disrupts Its Association with the β-Propeller Protein Laf1 at Endoplasmic Reticulum-Plasma Membrane Contact Sites in the Yeast Saccharomyces cerevisiae” (Biomolecules, 2020).

T1: GST-Laf1 (S. cerevisiae, UniProt Q03177 1-834)
T1 construct: Laf1/Ymr102c, S. cerevisiae, WD40 repeat protein; plasmid described only as pGEX4T-1 Laf1, no limits stated; Probably the whole open reading frame (surmised); also called Ymr102c; Lam2/Ltc4-Associated Factor 1; source: E. coli BL21(DE3), purified (glutathione beads); not shown: GST, N-terminal, kept
T1 sequence (looked up): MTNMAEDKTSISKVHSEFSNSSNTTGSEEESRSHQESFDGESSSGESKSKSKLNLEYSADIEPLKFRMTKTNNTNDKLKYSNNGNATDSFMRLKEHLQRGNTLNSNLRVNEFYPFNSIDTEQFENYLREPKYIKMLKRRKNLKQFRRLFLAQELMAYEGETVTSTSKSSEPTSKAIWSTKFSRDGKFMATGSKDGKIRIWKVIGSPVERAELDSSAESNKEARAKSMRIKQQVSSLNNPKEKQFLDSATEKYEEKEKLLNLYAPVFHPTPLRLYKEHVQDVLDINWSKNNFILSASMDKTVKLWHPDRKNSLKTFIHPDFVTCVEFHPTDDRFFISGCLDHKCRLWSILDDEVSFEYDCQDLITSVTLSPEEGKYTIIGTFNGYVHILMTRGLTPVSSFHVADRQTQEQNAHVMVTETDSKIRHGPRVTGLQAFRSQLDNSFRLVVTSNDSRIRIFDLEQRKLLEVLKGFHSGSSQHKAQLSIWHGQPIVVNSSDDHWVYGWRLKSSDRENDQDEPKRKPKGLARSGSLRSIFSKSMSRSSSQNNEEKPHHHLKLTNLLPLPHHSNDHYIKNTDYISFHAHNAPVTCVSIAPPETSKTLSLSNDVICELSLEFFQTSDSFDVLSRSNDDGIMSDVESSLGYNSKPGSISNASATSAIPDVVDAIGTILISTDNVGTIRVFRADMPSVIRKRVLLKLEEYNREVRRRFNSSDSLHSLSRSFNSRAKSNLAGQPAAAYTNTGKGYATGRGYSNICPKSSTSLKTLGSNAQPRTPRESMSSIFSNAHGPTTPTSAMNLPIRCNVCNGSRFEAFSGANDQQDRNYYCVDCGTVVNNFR

T2: GST-Dgr2 (S. cerevisiae, UniProt P32330 1-852)
T2 construct: Dgr2/Ykl121w, S. cerevisiae, WD40 repeat protein, paralog of Laf1; plasmid described only as pGEX4T-1 Dgr2, no limits stated; Probably the whole open reading frame (surmised); also called Ykl121w; pFR404; source: E. coli BL21(DE3), purified (glutathione beads); not shown: GST, N-terminal, kept
T2 sequence (looked up): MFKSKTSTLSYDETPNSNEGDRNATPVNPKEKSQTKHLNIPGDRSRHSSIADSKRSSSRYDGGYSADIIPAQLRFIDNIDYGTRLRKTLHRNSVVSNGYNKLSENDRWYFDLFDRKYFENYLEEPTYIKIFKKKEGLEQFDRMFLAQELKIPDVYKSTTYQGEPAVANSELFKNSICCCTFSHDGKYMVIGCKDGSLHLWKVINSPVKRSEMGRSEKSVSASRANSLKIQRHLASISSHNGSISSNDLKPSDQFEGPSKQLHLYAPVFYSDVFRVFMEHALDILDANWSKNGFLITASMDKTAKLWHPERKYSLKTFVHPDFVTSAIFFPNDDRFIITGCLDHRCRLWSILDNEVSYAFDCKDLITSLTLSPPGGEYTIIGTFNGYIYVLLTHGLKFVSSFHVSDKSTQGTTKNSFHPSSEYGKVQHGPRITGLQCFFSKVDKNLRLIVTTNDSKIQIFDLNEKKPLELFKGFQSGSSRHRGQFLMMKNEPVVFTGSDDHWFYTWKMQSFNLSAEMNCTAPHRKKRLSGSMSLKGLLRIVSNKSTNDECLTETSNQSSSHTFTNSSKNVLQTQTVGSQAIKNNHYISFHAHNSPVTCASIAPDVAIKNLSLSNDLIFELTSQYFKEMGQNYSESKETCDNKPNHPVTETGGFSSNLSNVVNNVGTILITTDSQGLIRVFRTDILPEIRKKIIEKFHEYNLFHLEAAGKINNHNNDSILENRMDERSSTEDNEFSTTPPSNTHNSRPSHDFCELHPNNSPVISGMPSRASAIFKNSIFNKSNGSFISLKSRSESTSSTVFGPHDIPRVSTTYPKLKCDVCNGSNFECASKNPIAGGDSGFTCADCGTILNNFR


Columns and labels:
[1] = target: T1, GST-Laf1; test: pull-down; GST fusion (bait) and His6-tagged Lam fragment incubated 1 h at 4 °C, complexes on glutathione-agarose beads; binding buffer 81 mM NaCl, 4.5 mM KCl, 1.35 mM MgCl2, 0.09% Triton X-100, 0.1 mg/mL BSA, 20 mM HEPES pH 7.5; four washes; immunoblot (anti-His, anti-GST); details: both partners purified
[2] = target: T2, GST-Dgr2; test: as above; details: both partners purified

Row | Binder | binding result [1] | binding result [2]
1 | Lam2(482–1259; ∆644–760)-(His)6 (domain or fragment, S. cerevisiae, UniProt Q06681 482-1259, looked up, also called ∆PH; source: E. coli BL21(DE3), purified (glutathione beads, cut off with TEV protease); not shown: GST, N-terminal, cleaved; His6, C-terminal, kept) LGPKELNTSYRNSTYIDMARFENSQSNLSSHRARSKTLPANKALENAVGDEGNSKRNSRYSSYSNDMAFDDADERKFRSMSKKFLNRRSFSPSNLGNKVIPGINLRNSFNKNRNSSSDFFSTNQGQQMPRTSTAGSGNIHAIMGLDSGNDDFKLEGIEYASEKYRNGFGNNDDGTISDSSSAFFDDSDDNDDDGDLDDDDPDINSTDMTSSDDIDADVFNESNDLGKNQKSTNYLLGPNKHSPTTADFKPSNNDHLVIEANINAPLGKVVNLLYGEDVSYYERILKAQKNFEISPIPNNFLTKKIRDYAYTKPLSGSIGPSKTKCLITDTLEHYDLEDYVKVLSITKNPDVPSGNIFSVKTVFLFSWDKNNSTKLTVYNSVDWTGKSWIKSMIEKGTFDGVADTTKIMISEIKKILSDEDSNINSKHQASNNESEEEIINLPTIGPPVHDPTEPDFQKGKDDTVIDEKINIPVPLGTVFSLLYGDDTSYIKKIIENQNNFNVCDIPKFVNNAREITYTKKLNNSFGPKQTKCIVTETIEHMDLNSFFMVKQIVRSPDVPYGSSFSVHTRFFYSWGDHNTTNMKVVTNVVWTGKSMLKGTIEKGSIDGQRSSTKQLVDDLKKIISNASSTKKKSRRRGKTVNKRKSSPSTIKNEKNEENFED | binds | 
2 | Lam2(482–1259)-(His)6 (domain or fragment, S. cerevisiae, UniProt Q06681 482-1259, looked up, also called Lam2/Ltc4/Ysp2 fragment; pFR391; source: E. coli BL21(DE3), purified (glutathione beads, cut off with TEV protease); not shown: GST, N-terminal, cleaved; His6, C-terminal, kept) LGPKELNTSYRNSTYIDMARFENSQSNLSSHRARSKTLPANKALENAVGDEGNSKRNSRYSSYSNDMAFDDADERKFRSMSKKFLNRRSFSPSNLGNKVIPGINLRNSFNKNRNSSSDFFSTNQGQQMPRTSTAGSGNIHAIMGLDSGNDDFKLEGIEYASEKKNSEFHTLFKDCDINPNEKLIVDHSCALSRDILLQGRMYISDAHIGFFSNILGWVSTVFIPFKEIVQIEKKTTAGIFPNGIVIDTLHTKYIFASFMSRDATFDLITDVWNQIILGKKYRNGFGNNDDGTISDSSSAFFDDSDDNDDDGDLDDDDPDINSTDMTSSDDIDADVFNESNDLGKNQKSTNYLLGPNKHSPTTADFKPSNNDHLVIEANINAPLGKVVNLLYGEDVSYYERILKAQKNFEISPIPNNFLTKKIRDYAYTKPLSGSIGPSKTKCLITDTLEHYDLEDYVKVLSITKNPDVPSGNIFSVKTVFLFSWDKNNSTKLTVYNSVDWTGKSWIKSMIEKGTFDGVADTTKIMISEIKKILSDEDSNINSKHQASNNESEEEIINLPTIGPPVHDPTEPDFQKGKDDTVIDEKINIPVPLGTVFSLLYGDDTSYIKKIIENQNNFNVCDIPKFVNNAREITYTKKLNNSFGPKQTKCIVTETIEHMDLNSFFMVKQIVRSPDVPYGSSFSVHTRFFYSWGDHNTTNMKVVTNVVWTGKSMLKGTIEKGSIDGQRSSTKQLVDDLKKIISNASSTKKKSRRRGKTVNKRKSSPSTIKNEKNEENFED | binds | binds
3 | Lam2(482-1259; T518A L519A T1237A V1238A)-(His)6 (domain or fragment, S. cerevisiae, UniProt Q06681 482-1259, looked up, also called pFR411; source: E. coli BL21(DE3), purified (glutathione beads, cut off with PreScission protease); not shown: GST, N-terminal, cleaved; His6, C-terminal, kept) LGPKELNTSYRNSTYIDMARFENSQSNLSSHRARSKAAPANKALENAVGDEGNSKRNSRYSSYSNDMAFDDADERKFRSMSKKFLNRRSFSPSNLGNKVIPGINLRNSFNKNRNSSSDFFSTNQGQQMPRTSTAGSGNIHAIMGLDSGNDDFKLEGIEYASEKKNSEFHTLFKDCDINPNEKLIVDHSCALSRDILLQGRMYISDAHIGFFSNILGWVSTVFIPFKEIVQIEKKTTAGIFPNGIVIDTLHTKYIFASFMSRDATFDLITDVWNQIILGKKYRNGFGNNDDGTISDSSSAFFDDSDDNDDDGDLDDDDPDINSTDMTSSDDIDADVFNESNDLGKNQKSTNYLLGPNKHSPTTADFKPSNNDHLVIEANINAPLGKVVNLLYGEDVSYYERILKAQKNFEISPIPNNFLTKKIRDYAYTKPLSGSIGPSKTKCLITDTLEHYDLEDYVKVLSITKNPDVPSGNIFSVKTVFLFSWDKNNSTKLTVYNSVDWTGKSWIKSMIEKGTFDGVADTTKIMISEIKKILSDEDSNINSKHQASNNESEEEIINLPTIGPPVHDPTEPDFQKGKDDTVIDEKINIPVPLGTVFSLLYGDDTSYIKKIIENQNNFNVCDIPKFVNNAREITYTKKLNNSFGPKQTKCIVTETIEHMDLNSFFMVKQIVRSPDVPYGSSFSVHTRFFYSWGDHNTTNMKVVTNVVWTGKSMLKGTIEKGSIDGQRSSTKQLVDDLKKIISNASSTKKKSRRRGKAANKRKSSPSTIKNEKNEENFED | binds | 

Other lines, results leading:

Row | binding result [1] | binding result [2] | Binder
4 | binds |  | Lam2(849–1259)-(His)6 (domain or fragment, S. cerevisiae, UniProt Q06681 849-1259, looked up, tandem StARkin domains, PH domain removed; also called pFR409; source: E. coli BL21(DE3), purified (glutathione beads, cut off with TEV protease); not shown: GST, N-terminal, cleaved; His6, C-terminal, kept) SNNDHLVIEANINAPLGKVVNLLYGEDVSYYERILKAQKNFEISPIPNNFLTKKIRDYAYTKPLSGSIGPSKTKCLITDTLEHYDLEDYVKVLSITKNPDVPSGNIFSVKTVFLFSWDKNNSTKLTVYNSVDWTGKSWIKSMIEKGTFDGVADTTKIMISEIKKILSDEDSNINSKHQASNNESEEEIINLPTIGPPVHDPTEPDFQKGKDDTVIDEKINIPVPLGTVFSLLYGDDTSYIKKIIENQNNFNVCDIPKFVNNAREITYTKKLNNSFGPKQTKCIVTETIEHMDLNSFFMVKQIVRSPDVPYGSSFSVHTRFFYSWGDHNTTNMKVVTNVVWTGKSMLKGTIEKGSIDGQRSSTKQLVDDLKKIISNASSTKKKSRRRGKTVNKRKSSPSTIKNEKNEENFED
5 | binds | binds | Lam4(371–1177)-(His)6 (domain or fragment, S. cerevisiae, UniProt P38800 371-1177, looked up, also called Lam4/Ltc3 fragment; pFR407; source: E. coli BL21(DE3), purified (glutathione beads, cut off with TEV protease); not shown: GST, N-terminal, cleaved; His6, C-terminal, kept) SNLERKTVPSKWSVVSSSTTDGVKPRRRAKSMISAMADKQNTSSDVLQDCKKRLSFNSSNGLTNNDPEYEDREPREMSKKFLNRRSFSPGSISMGMKVLPSTALKYSLNKVKNSTDIASTIIPRPSMSNGRPSSGLRRSSSKSFSSTPVNIIEPSEENGRQSSIRIKGVEYASEKKDAEFHAIFKDSGVSPNERLILDHSCALSRDILLQGRMYISDQHIGFYSNILGWVSTVFIPFKTIVQIEKRATAGIFPNGIVIDTLHTKYTFASFTSRDATYDLITEVWNQIILGKRFRSNSNNTNSSSNSISDDENDDYDDDYDDYGDDDDDLYDNSNNISDSTDMTSSVSIGKPEDLPMPLQTDTPYGTGIPPLGPKIHSPTETVYKPAPNEKLVNESTIHASLGRVVNILFGKDVSYIMAILKAQKNSDISPIPVLVDSPTVSEGKKRDYSYVKTTPGAIGPGKTKCMITETIQHFNLEEYVQVLQTTKTPDVPSGNSFYVRTVYLLSWANNNETKLKLYVSVEWTGKSLIKSPIEKGTFDGVTDATKILVEELGNILTRSATKRKRSSKENTVTVSTLPKMEPSSHAPTEPDIQKDKDDSIIRENENIPAPLGTVVQLLFGSNTEYMQKVITRDKNNVNVETIPKFTPSLVEGGSRHYEYTKKLNNSIGPKQTKCLLTESIEHMDINNYVLVTQTTKTPDVPSGSNFAVESKIFLFWGQHDTTNMTVITKINWTSKSFLKGAIEKGSVEGQKVSVDYMLSELRDIISRAKSKKPVKKVMKSHDKHRPFHSKVEQKSSESRKSDDNKDI
